Test results taken from patent US20240270839A1.
Changes are numbered by the printed parent chain.

B1: hu35B4.H1L2 (antibody, V domains shown)
VH: EVQLLESGGGLVQPGGSLRLSCAASGFTLSSYALSWVRQAPGKGLEWVSYISNLGGSTFYPDTVKGRFTISRDNSKNTLYLQMNSLRAEDTAVYYCAKHLYNYDAFASWGQGTLVTVSS
VL: DIQLTQSPSFLSASVGDRVTITCRASSSVNYIHWYQQKPGKAPKALIYATSNLASGVPSRFSGSGSGTEYTLTISSLQPEDFATYYCQQWNSNPLTFGQGTKLEIK
B2: hu22E12.H1L2 (antibody, V domains shown)
VH: QVQLVQSGAEVKKPGASVKVSCKASGYTFTNWVHWVRQAPGQGLEWMGEINPTNARSNYNEKFKKRVTMTRDTSTSTVYMELSSLRSEDTAVYYCARIYYGNSFAHWGQGTLVTVSS
VL: DIVMTQSPDSLAVSLGERATINCKSSQSLLNAGNQKNYLTWYQQKPGQPPKLLIYWSSTRESGVPDRFSGSGSGTDFTLTISSLQAEDVAVYHCQNNYYYPLTFGGGTKLEIK
B3: ch99H8 (antibody, V domains shown)
VH: QVQLQQSGPELVKPGASVKLSCKASGYSFTNFDINWVKQRPGQGLQWIGRLYPRDGTTTYNEKFKGKASLTVDTSSTTSYMDLHSLTSEDSAVYFCVRGNYGNSFAYWGQGTLVTVSA
VL: DIVMTQSPSSLTVTAREKVIMNCKSSQSLFNSGNQKNYLTWYQQKPGQSPKLLIYWASTRQSGVPDRFTGSGSGTDFTLTISTVQAEDLAVYFCQNGFSFPYTFGGGTKLEMN
B4: ch97A9 (antibody, V domains shown)
VH: QVQLQQSGPELVKPGASMKLSCKASGYSFTRNDINWVKQRPGQGLEWIGLSYPRDGTTQYNGKFKGKATLTVDTSSSTAYMELRSLTSEDSAVYFCARGYYGNSFAYWGQGTLVTVSA
VL: DIVMTQSPSSLTVTAGEKVTMSCKSSQSLLNSGNQKNYLTWYQQKPGQPPKLLIYWASTRESGVPDRFTGSGSGTYFTLTISSVQAEDLAVYFCQNDYYFPYTFGGGTKLEIK
B5: 99H8 (antibody, V domains shown)
VH: B3 VH
VL: B3 VL
B6: 97A9 (antibody, V domains shown)
VH: B4 VH
VL: B4 VL
B7: 35B4 (antibody, V domains shown)
VH: EAKLVESGGDFMQPGGSLKLSCAASGFTLSSYALSWVRQTPEKRLEWVAYISNLGGSTFYPDTVKGRFTISRDNARNTLFLQMSSLQSEDTAIYYCATHLYNYDAFASWGQGTLVTVSA
VL: QIVLSQSPAILSASPGEKVTMTCRASSSVNYIHWYQQKPGSSPKAWIYATSNLASGVPTRFSGSGSGTSYSLTIDRVEAEDAATYYCQQWNSNPLTFGAGTKLELK
B8: 22E12 (antibody, V domains shown)
VH: QVQLQQPGTELVKTGTSVKLSCKASGYTFTNWVHWVIQRPGQGLEWIGEINPTNGRSNYNEKFKKKATLTLDRSSTTAYMQLSSLTSEDSAVYFCAGIYYGNSFAHWGQGTLVTVSA
VL: B4 VL with M21L, A57S, Y76D, F93H, D97N, F100Y, Y102L, G106A, I112L
B9: 33G12 (antibody, V domains shown)
VH: EVKLVESGGGLVQPGGSLKLSCAASGFTFSRYAMSWVRQTPEKRLEWVAYISIGGTTYYPDTIKGRFTISRDNAKNTLYLQMSSLKSEDTAMYYCTRHYYGHDVMDYWGQGTSVTVSS
VL: B7 VL with A9T, S26T, N30S, I32M, Y35F, A45P, T59A, D75S, N91S, S92R

Key:
[1] = target: recombinant 6xHis tagged human CLDN18.2 (human); assay: SPR (Biacore T200), His tagged CLDN18.2 amine-coupled on CM5, antibody as analyte, 1:1 fit
[2] = target: recombinant 6xHis tagged human CLDN18.2 (human); assay: SPR (Biacore); same values as Table 30, where the antibody is hu35B4.H1L2
[3] = target: recombinant 6xHis tagged human CLDN18.2 (human); assay: SPR (Biacore); same values as Table 30, where the antibody is hu22E12.H1L2
[4] = target: recombinant 6xHis tagged human CLDN18.2 (human); assay: SPR (Biacore); same values as Table 30, where the antibody is ch99H8
[5] = target: recombinant 6xHis tagged human CLDN18.2 (human); assay: SPR (Biacore); same values as Table 30, where the antibody is ch97A9
[6] = target: mouse CLDN18.2 (mCLDN18.2), expressed on HEK293 cells (mouse) (UniProt P56857); assay: FACS, HEK293/mCLDN18.2 cells
[7] = target: human CLDN18.2 as used in the Octet assay (human); assay: Octet (BLI); format not described
[8] = target: biotin labeled hCLDN18.2 (human); assay: competitive ELISA: excess antibody plus biotin labeled hCLDN18.2 on coated IMAB362; competitor IMAB362

Binder | Kd [1] [nM] | koff [1] [s⁻¹] | kon [1] [M⁻¹ s⁻¹] | EC50 [6] [nM] | Kd [7] [nM] | Compete with IMAB362 (%) [8] [%] | other results
B1 | 1.57 | 0.00035 | 222000 |  |  |  | Kd [2]: 1.57 nM
B2 | 0.26 | 0.000202 | 778000 |  |  |  | Kd [3]: 0.26 nM
B3 | 1.75 | 0.000355 | 203000 |  |  |  | Kd [4]: 1.75 nM
B4 | 1.15 | 0.000489 | 425000 |  |  |  | Kd [5]: 1.15 nM
B5 |  |  |  | 3.5 | 2 |  | 
B6 |  |  |  | 1.4 | 2.2 | 92 | 
B7 |  |  |  | 1.9 | 3.3 | 81 | 
B8 |  |  |  | 0.9 | < 0.001 | 49 | 
B9 |  |  |  | 1.7 | 6.2 | 87 | 
